According to US10919943B2, “Mutant proteins enabling agrochemical control of plant gene expression” (The Regents of the University of California, priority 2016, dated 2021):
Marks after values point to notes of the source that are not given here.

Key:
PYR1*^-MANDI = target: T1, PYR1*^-MANDI (Arabidopsis thaliana, UniProt O49686, A160V/F108A/F159V/K59R/M158I/S122G/T162D/V81I/Y58H); assay: Yeast two hybrid, mandipropamid-induced interaction of HAB1 variants with pBD-PYR1*^-MANDI; assay type: cell-based; settings: selection on 500 nM mandipropamid
T1 construct: expressed in transfected cells; host or cells: S. cerevisiae strain MAV99 (selection)
T1 sequence (O49686 1-191 Y58H/K59R/V81I/F108A/S122G/M158I/F159V/A160V/T162D): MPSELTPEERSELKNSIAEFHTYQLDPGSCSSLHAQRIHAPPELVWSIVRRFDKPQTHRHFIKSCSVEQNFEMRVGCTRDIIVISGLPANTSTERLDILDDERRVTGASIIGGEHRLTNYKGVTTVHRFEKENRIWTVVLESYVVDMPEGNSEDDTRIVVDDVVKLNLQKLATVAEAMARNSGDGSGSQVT
Text: To investigate the effects of overexpressing HAB1^!-2 in Arabidopsis, we used Agrobacterium mediated transformation to generate 35S::GFP-HAB1^!-2 transgenic plants. HAB1^!-2 was cloned from pACT-HAB1^!-2 into pEGAD, a binary vector suitable for plant transformation, generating a 35S-driven GFP-HAB1^!-2 fusion protein. The clone was transformed into Agrobacterium and the floral dip method used to transform Arabidopsis. After selection of T0 seed on soil containing glufosinate, several T1 seedlings were identified. […] As an alternate strategy, we eliminated HAB1's catalytic activity by introducing a mutation in a conserved metal-ion binding residue (D204), which is homologous to D131A mutation in ABI1, previously shown to eliminate phosphatase activity without disrupting wild type receptor-ABI1 interactions (Liang et al., 2011). We used QuickChange mutagenesis to introduce the D204A mutation into pACT-HAB1^!-2, generating pACT-HAB1^!-3. When tested for mandipropamid induced interactions with pBD-PYR1*^-MANDI, HAB1^!-3 is ˜10-fold less sensitive to mandipropamid relative to HAB1^!-2 (FIG. 5).
D204 is located within HAB1's catalytic active site and binds to one of 3 catalytic Mg^++ ions that participate in catalysis. […] It is likely that disruptions to active site structure introduced by D204A destabilize the PYR1*^-MANDI/HAB1^!-3 interaction relative to HAB1^!-2. We reasoned that suppressor mutations in other HAB1 interface or active site residues could restore sensitivity by strengthening interactions with PYR1*^-MANDI. To identify such suppressors, we mutagenized the pACT-HAB1^!-3 template using NNK mutagenesis in 28 residues located with at the PYR1 binding interface. The residues targeted were: R199, S200, E201, E203, D243, G244, H245, G246, G247, S322, E323, T324, D346, K365, K381, 1383, Q384, W385, Q386, R389, F391, G392, Y404, S431, G433, D436, D492 and N394. The pACT-HAB1^!-3 template was mutagenized in 28 separate NNK mutagenesis reactions using the QuickChange protocol. Mini-libraries, each containing ˜1000 clones, were made for each NNK reaction and plasmid DNA for the 28 mutations prepared, pooled, and then transformed into S. cerevisiae strain MAV99 co-transformed with pBD-PYR1*^-MANDI, and then plated onto selective SD(-Leu,-Trp,-Ura) agar media supplemented with 500 nM mandipropamid. […] S322D and R199A were combined using the Lightning Multi-site Mutagenesis™ (Agilent, USA) method, and the resultant pentuple mutant tested in combination with pBD-PYR1*^-MANDI for sensitivity to mandipropamid using β-galactosidase assays.

HAB1^!-2 = assay: Yeast two hybrid, mandipropamid-promoted interaction of PYR1 variants with HAB1^!-2; assay type: cell-based; settings: for mandipropamid concentration to which the interaction responds: FIG. 3, FIG. 4; for relative mandipropamid sensitivity among selected mutants: β-galactosidase assays on different mandipropamid concentrations
Text: To engineer orthogonal mandipropamid responsiveness, we introduced the PYR1^! mutation into the PYR1^MANDI receptor to create a septuple mutant called PYR1^!-MANDI (PYR1^Y58H;K59R;V81I;F108A;S122G;F159L;T162D). This mutant interacts with HAB1^! and HAB^!-2 in response to low μM mandipropamid in yeast two-hybrid assays, but is ˜100-fold less sensitive than the PYR1^MANDI/HAB1 interaction, which responds to concentrations in the low nM range (FIG. 3).
To improve sensitivity, we mutagenized ligand contacting and interface residues in PYR1^!-MANDI using NNK primers, pooled the mutant libraries, and used the mutagenized receptors in selection experiments using to identify enhancer mutations. The NNK mutagenesis screen targeted the following residues: P55, H60, F61, I62, K63, V83, S85, G86, L87, P88, A89, S92, E94, I110, H115, R116, L117, Y120, E141, P148, G150, N151, D154, D155, T156, M158, A160, V163, V164, L166, N167, and K170. […] Since M158 and A160 flank the […] mutation present in PYR1^MANDI, we inferred that the closely located orthogonalizing T162D mutation in PYR1^!-MANDI may have reduced mandipropamid sensitivity by altering the local structure of the C-terminal α3-helix, which participates in ligand-induced conformational changes needed for PP2C binding (Nishimura et al., 2009). We therefore simultaneously mutagenized positions M158, F159 and A160 using a primer with degenerate NNK codons at all three positions. F159 was included in this mutagenesis because we have previously observed that multiple substitutions at F159 (A,C,I,L,M,T, or V) are permissive for mandipropamid responsiveness (S. Y. Park et al., n.d.), and sought to test whether residues other than leucine at position 159 might function better in the context of simultaneous changes to both A160 and M158. The mutagenic primer was used in QuickChange mutagenesis reactions using pBD-PYR1^!-MANDI template, and a library of ˜12,000 clones was generated. Plasmid DNA for the library was prepared from pooled E. coli transformants, and subsequently transformed into S. cerevisiae strain MAV99 harboring pACT-HAB1^!-2. ˜20,000 yeast transformants were generated, pooled, and plated onto SD(-Leu,-Trp) agar media supplemented with 0.1% fluorotic acid (to select against mutants that interact in a ligand-independent fashion). The surviving cells were collected and plated onto SD(Leu,-Trp,-Ura) plates supplemented with 50 nM mandipropamid. The colonies displaying the best uracil-independent growth were isolated and retested on different mandipropamid concentrations and then stained in β-galactosidase assays to rank their relative strength.

Row | Molecule | effect of mutation on mandipropamid responsiveness of HAB1^!-3 (PYR1*^-MANDI) | mandipropamid concentration to which the interaction responds (HAB1^!-2) | relative mandipropamid sensitivity among selected mutants (HAB1^!-2)
1 | S322D (protein, listed as Arabidopsis thaliana) MEEMTPAVAMTLSLAANTMCESSPVEITQLKNVTDAADLLSDSENQSFCNGGTECTMEDVSELEEVGEQDLLKTLSDTRSGSSNVFDEDDVLSVVEDNSAVISEGLLVVDAGSELSLSNTAMEIDNGRVLATAIIVGESSIEQVPTAEVLIAGVNQDTNTSEVVIRLPDENSNHLVKGRSVYELDCIPLWGTVSIQGNRSEMEDAFAVSPHFLKLPIKMLMGDHEGMSPSLTHLTGHFFGVYDGHGGHKVADYCRDRLHFALAEEIERIKDELCKRNTGEGRQVQWDKVFTSCFLTVDGEIEGKIGRAVVGSSDKVLEAVADETVGSTAVVALVCSSHIVVSNCGDSRAVLFRGKEAMPLSVDHKPDREDEYARIENAGGKVIQWQGARVFGVLAMSRSIGDRYLKPYVIPEPEVTFMPRSREDECLILASDGLWDVMNNQEVCEIARRRILMWHKKNGAPPLAERGKGIDPACQAAADYLSMLALQKGSKDNISIIVIDLKAQRKFKTRT | enhance responsiveness of HAB1^!-3 | – | –
2 | S322E (protein, listed as Arabidopsis thaliana) MEEMTPAVAMTLSLAANTMCESSPVEITQLKNVTDAADLLSDSENQSFCNGGTECTMEDVSELEEVGEQDLLKTLSDTRSGSSNVFDEDDVLSVVEDNSAVISEGLLVVDAGSELSLSNTAMEIDNGRVLATAIIVGESSIEQVPTAEVLIAGVNQDTNTSEVVIRLPDENSNHLVKGRSVYELDCIPLWGTVSIQGNRSEMEDAFAVSPHFLKLPIKMLMGDHEGMSPSLTHLTGHFFGVYDGHGGHKVADYCRDRLHFALAEEIERIKDELCKRNTGEGRQVQWDKVFTSCFLTVDGEIEGKIGRAVVGSSDKVLEAVAEETVGSTAVVALVCSSHIVVSNCGDSRAVLFRGKEAMPLSVDHKPDREDEYARIENAGGKVIQWQGARVFGVLAMSRSIGDRYLKPYVIPEPEVTFMPRSREDECLILASDGLWDVMNNQEVCEIARRRILMWHKKNGAPPLAERGKGIDPACQAAADYLSMLALQKGSKDNISIIVIDLKAQRKFKTRT | enhance responsiveness of HAB1^!-3 | – | –
3 | R199A (protein, listed as Arabidopsis thaliana) MEEMTPAVAMTLSLAANTMCESSPVEITQLKNVTDAADLLSDSENQSFCNGGTECTMEDVSELEEVGEQDLLKTLSDTRSGSSNVFDEDDVLSVVEDNSAVISEGLLVVDAGSELSLSNTAMEIDNGRVLATAIIVGESSIEQVPTAEVLIAGVNQDTNTSEVVIRLPDENSNHLVKGRSVYELDCIPLWGTVSIQGNASEMEDAFAVSPHFLKLPIKMLMGDHEGMSPSLTHLTGHFFGVYDGHGGHKVADYCRDRLHFALAEEIERIKDELCKRNTGEGRQVQWDKVFTSCFLTVDGEIEGKIGRAVVGSSDKVLEAVASETVGSTAVVALVCSSHIVVSNCGDSRAVLFRGKEAMPLSVDHKPDREDEYARIENAGGKVIQWQGARVFGVLAMSRSIGDRYLKPYVIPEPEVTFMPRSREDECLILASDGLWDVMNNQEVCEIARRRILMWHKKNGAPPLAERGKGIDPACQAAADYLSMLALQKGSKDNISIIVIDLKAQRKFKTRT | enhance responsiveness of HAB1^!-3 | – | –
4 | PYR1^Y58H;K59R;V81I;F108A;S122G;M158V;F159V;A160V;T162D: PYR1 mutant with 9 mutations (protein, listed as Arabidopsis thaliana) MPSELTPEERSELKNSIAEFHTYQLDPGSCSSLHAQRIHAPPELVWSIVRRFDKPQTHRHFIKSCSVEQNFEMRVGCTRDIIVISGLPANTSTERLDILDDERRVTGASIIGGEHRLTNYKGVTTVHRFEKENRIWTVVLESYVVDMPEGNSEDDTRVVVDDVVKLNLQKLATVAEAMARNSGDGSGSQVT | – | nM responses | slightly less sensitive than PYR1*^-MANDI
5 | PYR1^Y58H;K59R;V81I;F108A;S122G;M158I;F159V;A160C;T162D: PYR1 mutant with 9 mutations (protein, listed as Arabidopsis thaliana) MPSELTPEERSELKNSIAEFHTYQLDPGSCSSLHAQRIHAPPELVWSIVRRFDKPQTHRHFIKSCSVEQNFEMRVGCTRDIIVISGLPANTSTERLDILDDERRVTGASIIGGEHRLTNYKGVTTVHRFEKENRIWTVVLESYVVDMPEGNSEDDTRIVCDDVVKLNLQKLATVAEAMARNSGDGSGSQVT | – | nM responses | slightly less sensitive than PYR1*^-MANDI
